From US20250152746A1, “BASE EDITING OF ANGPTL3 AND METHODS OF USING SAME FOR TREATMENT OF DISEASE” (Verve Therapeutics, Inc., priority 2020, published 2025)
In the oligonucleotide strings, read from the 5' end, every base follows the letter of its sugar. An asterisk marks phosphorothioate; unmarked linkages are phosphodiester. Other units and linkages are bracketed, terminal groups are in braces. A string of capitals states the bases alone. m = 2'-O-methyl; r = 2'-OH (RNA)

B1: GA167: PCSK9 gRNA; protospacer TCAGCTCCAGGCGGTCCTGG (SEQ ID NO: 161) (nucleic acid)
guide: UCAGCUCCAGGCGGUCCUGGGUUUUAGAGCUAGAAAUAGCAAGUUAAAAUAAGGCUAGUCCGUUAUCAACUUGAAAAAGUGGCACCGAGUCGGUGCUUUU
modifications: sugars from the 5' end m3 r94 m3, linkages s3 o93 s3 (s phosphorothioate, o phosphodiester), T or U not given here
B2: GA245: PCSK9 gRNA; protospacer GTGCTGCTGCCCCTGGCGGG (SEQ ID NO: 238) (nucleic acid)
guide: GUGCUGCUGCCCCUGGCGGGGUUUUAGAGCUAGAAAUAGCAAGUUAAAAUAAGGCUAGUCCGUUAUCAACUUGAAAAAGUGGCACCGAGUCGGUGCUUUU
modifications: sugars from the 5' end m3 r94 m3, linkages s3 o93 s3 (s phosphorothioate, o phosphodiester), T or U not given here
B3: GA164: PCSK9 gRNA; protospacer GTCCTCGTCCTCCTGCGCAC (SEQ ID NO: 158) (nucleic acid)
guide: GUCCUCGUCCUCCUGCGCACGUUUUAGAGCUAGAAAUAGCAAGUUAAAAUAAGGCUAGUCCGUUAUCAACUUGAAAAAGUGGCACCGAGUCGGUGCUUUU
modifications: sugars from the 5' end m3 r94 m3, linkages s3 o93 s3 (s phosphorothioate, o phosphodiester), T or U not given here
B4: GA165: PCSK9 gRNA; protospacer CCGTCAGCTCCAGGCGGTCC (SEQ ID NO: 159) (nucleic acid)
guide: CCGUCAGCUCCAGGCGGUCCGUUUUAGAGCUAGAAAUAGCAAGUUAAAAUAAGGCUAGUCCGUUAUCAACUUGAAAAAGUGGCACCGAGUCGGUGCUUUU
modifications: sugars from the 5' end m3 r94 m3, linkages s3 o93 s3 (s phosphorothioate, o phosphodiester), T or U not given here
B5: GA163: PCSK9 gRNA; protospacer CGTCCTCGTCCTCCTGCGCA (SEQ ID NO: 157) (nucleic acid)
guide: CGUCCUCGUCCUCCUGCGCAGUUUUAGAGCUAGAAAUAGCAAGUUAAAAUAAGGCUAGUCCGUUAUCAACUUGAAAAAGUGGCACCGAGUCGGUGCUUUU
modifications: sugars from the 5' end m3 r94 m3, linkages s3 o93 s3 (s phosphorothioate, o phosphodiester), T or U not given here
B6: GA166: PCSK9 gRNA; protospacer CGCCCGTGCGCAGGAGGACG (SEQ ID NO: 160) (nucleic acid)
guide: CGCCCGUGCGCAGGAGGACGGUUUUAGAGCUAGAAAUAGCAAGUUAAAAUAAGGCUAGUCCGUUAUCAACUUGAAAAAGUGGCACCGAGUCGGUGCUUUU
modifications: sugars from the 5' end m3 r94 m3, linkages s3 o93 s3 (s phosphorothioate, o phosphodiester), T or U not given here
B7: GA247: PCSK9 gRNA; protospacer CCTCGCCAGGCGCTGGCAGG (SEQ ID NO: 240) (nucleic acid)
guide: CCUCGCCAGGCGCUGGCAGGGUUUUAGAGCUAGAAAUAGCAAGUUAAAAUAAGGCUAGUCCGUUAUCAACUUGAAAAAGUGGCACCGAGUCGGUGCUUUU
modifications: sugars from the 5' end m3 r94 m3, linkages s3 o93 s3 (s phosphorothioate, o phosphodiester), T or U not given here
B8: GA169: PCSK9 gRNA; protospacer CGTGCGCAGGAGGACGAGGA (SEQ ID NO: 163) (nucleic acid)
guide: CGUGCGCAGGAGGACGAGGAGUUUUAGAGCUAGAAAUAGCAAGUUAAAAUAAGGCUAGUCCGUUAUCAACUUGAAAAAGUGGCACCGAGUCGGUGCUUUU
modifications: sugars from the 5' end m3 r94 m3, linkages s3 o93 s3 (s phosphorothioate, o phosphodiester), T or U not given here
B9: GA168: PCSK9 gRNA; protospacer CTTGGCGCAGCGGTGGAAGG (SEQ ID NO: 162) (nucleic acid)
guide: CUUGGCGCAGCGGUGGAAGGGUUUUAGAGCUAGAAAUAGCAAGUUAAAAUAAGGCUAGUCCGUUAUCAACUUGAAAAAGUGGCACCGAGUCGGUGCUUUU
modifications: sugars from the 5' end m3 r94 m3, linkages s3 o93 s3 (s phosphorothioate, o phosphodiester), T or U not given here
B10: GA162: PCSK9 gRNA; protospacer GGACGGCGACTACGAGGAGC (SEQ ID NO: 156) (nucleic acid)
guide: mG*mG*mA*rCrGrGrCrGrArCrUrArCrGrArGrGrArGrCrGrUrUrUrUrArGrArGrCrUrArGrArArArUrArGrCrArArGrUrUrArArArArUrArArGrGrCrUrArGrUrCrCrGrUrUrArUrCrArArCrUrUrGrArArArArArGrUrGrGrCrArCrCrGrArGrUrCrGrGrUrGrCrU*mU*mU*mU
B11: GA246: PCSK9 gRNA; protospacer GCCAGCGCCTGGCGAGGGCT (SEQ ID NO: 239) (nucleic acid)
guide: GCCAGCGCCUGGCGAGGGCUGUUUUAGAGCUAGAAAUAGCAAGUUAAAAUAAGGCUAGUCCGUUAUCAACUUGAAAAAGUGGCACCGAGUCGGUGCUUUU
modifications: sugars from the 5' end m3 r94 m3, linkages s3 o93 s3 (s phosphorothioate, o phosphodiester), T or U not given here

Experiments:
PCSK9 gene [1] = experiment: PCSK9 gRNA/SpCas9 editing in primary human hepatocytes (Tables 2, 4); type: cell-based; details: SpCas9 mRNA MS002 1:1 by weight; for Human Primary Hepatocyte Editing % 100: 100 ng/RNA/mL; for Human Primary Hepatocyte Editing % 500: 500 ng/RNA/mL; for Human Primary Hepatocyte Editing % 2500: 2500 ng/RNA/mL
Method in brief: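 Primary human hepatocytes co-transfected with PCSK9 gRNA plus SpCas9 mRNA (1:1 by weight) at 2500, 500 or 100 ng RNA/mL, or 2500–250 ng/mL for tracr-modified guides. Editing at the target site read by amplicon next-generation sequencing of extracted genomic DNA.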

PCSK9 gene [2] = experiment: PCSK9 gRNA/SpCas9 editing in primary cynomolgus hepatocytes (Tables 2, 22); type: cell-based, cynomolgus monkey; details: SpCas9 mRNA MS002 1:1 by weight; for Cyno Primary Hepatocyte Editing % 100: 100 ng/RNA/mL; for Cyno Primary Hepatocyte Editing % 500: 500 ng/RNA/mL; for Cyno Primary Hepatocyte Editing % 2500: 2500 ng/RNA/mL

Molecule	Human Primary Hepatocyte Editing % 100 (PCSK9 gene [1])	Human Primary Hepatocyte Editing % 500 (PCSK9 gene [1])	Human Primary Hepatocyte Editing % 2500 (PCSK9 gene [1])	Cyno Primary Hepatocyte Editing % 100 (PCSK9 gene [2])	Cyno Primary Hepatocyte Editing % 500 (PCSK9 gene [2])	Cyno Primary Hepatocyte Editing % 2500 (PCSK9 gene [2])
B1	8.2%	25.87%	53.71%	11.98%	35.98%	66.07%
B2	1.68%	2.97%	2.9%	0.19%	0.88%	7.07%
B3	2.68%	11.12%	25.77%	2.75%	13.96%	34.89%
B4	4.99%	22.3%	40.27%	5.43%	18.00%	35.57%
B5	2.31%	9.2%	29.32%	5.99%	17.69%	49.50%
B6	2.89%	10.99%	36.89%	3.93%	14.39%	44.77%
B7	0.25%	0.17%	6.76%	0.71%	2.62%	11.48%
B8	5.49%	15.15%	46.65%	3.45%	18.28%	42.38%
B9		25.77%	54.99%	4.75%	15.90%	41.49%
B10	2.14%	12.97%	42.8%	1.62%	11.18%	28.26%
B11	0.08%	2.17%	17.95%	1.11%	5.78%	24.63%
